From US20040235118A1

Legend:
[1] = target: Crotalus durissus terrificus venom; test: ELISA, C.d.t. venom-coated plate, dilution 1:125
[2] = target: Crotalus durissus terrificus venom; test: ELISA, C.d.t. venom-coated plate, dilution 1:500
[3] = target: Crotalus durissus terrificus venom; test: ELISA, C.d.t. venom-coated plate (5 µg/ml), dilution 1:5
[4] = target: Crotalus durissus terrificus venom; test: ELISA, C.d.t. venom-coated plate (5 µg/ml), dilution 1:25
[5] = target: Crotalus durissus terrificus venom; test: ELISA, C.d.t. venom-coated plate, dilution 1:25
[6] = target: Crotalus durissus terrificus venom; test: ELISA, C.d.t. venom-coated plate, dilution 1:62,500
[7] = target: Crotalus durissus terrificus venom; test: ELISA, C.d.t. venom-coated plate (5 µg/ml), undiluted
[8] = target: Crotalus durissus terrificus venom; test: ELISA, C.d.t. venom-coated plate (5 µg/ml), dilution 1:625
[9] = target: Crotalus durissus terrificus venom; test: ELISA, C.d.t. venom-coated plate, dilution 1:5
[10] = target: Crotalus durissus terrificus venom; test: ELISA, C.d.t. venom-coated plate, dilution 1:3125
[11] = target: Crotalus durissus terrificus venom; test: ELISA, C.d.t. venom-coated plate (5 µg/ml), dilution 1:125
[12] = target: Crotalus durissus terrificus venom; test: ELISA, C.d.t. venom-coated plate, dilution 1:312,500
[13] = target: Crotalus durissus terrificus venom; test: ELISA, C.d.t. venom-coated plate, dilution 1:12,500
[14] = target: Crotalus durissus terrificus venom; test: ELISA, C.d.t. venom-coated plate (5 µg/ml), dilution 1:3125
[15] = target: Crotalus durissus terrificus venom; test: ELISA, C.d.t. venom-coated plate, dilution 1:625
[16] = target: Crotalus durissus terrificus venom; test: ELISA, C.d.t. venom-coated plate, dilution 1:2,500

preimmune IgY (PEG preparation from eggs of unimmunized hens or purchased eggs) (antibody)
absorbance (ELISA) [1]: < 0 OD
absorbance (412 nm filter) [2]: 0.005 OD
absorbance (ELISA) [3]: < 0 OD
absorbance (ELISA) [4]: 0 OD
absorbance (ELISA) [5]: 0.016 OD
absorbance (412 nm filter) [6]: 0.001 OD
absorbance (ELISA) [7]: 0.003 OD
absorbance (ELISA) [8]: 0 OD
absorbance (ELISA) [9]: < 0 OD
absorbance (ELISA) [10]: < 0 OD
absorbance (ELISA) [11]: 0.003 OD
absorbance (412 nm filter) [12]: 0.01 OD
absorbance (412 nm filter) [13]: 0.001 OD
absorbance (ELISA) [14]: 0.002 OD
absorbance (ELISA) [15]: < 0 OD
absorbance (412 nm filter) [16]: 0.004 OD
